According to publication PMC10279920, “Single-molecule visualization of Pif1 helicase translocation on single-stranded DNA” (The Journal of Biological Chemistry, 2023):

Tests used:
Assay in all cases: EMSA; no ATP, 5 mM Mg2+; 35 mM Tris-HCl pH 7.5, 1 mM DTT, 5 mM MgCl2, 60 mM KCl, 0.1 mg/ml BSA, no ATP, 30 min at 30 C; 5 nM ssDNA
Conditions in all cases: protein: recombinant; tags: N-terminal superfolder GFP; Ni-NTA purified; label: 5' Alexa647
GFP-Pif1 K312A = biological target: T1, GFP-Pif1 K312A (Saccharomyces cerevisiae, UniProt P07271 40-859, K312A)
T1 sequence: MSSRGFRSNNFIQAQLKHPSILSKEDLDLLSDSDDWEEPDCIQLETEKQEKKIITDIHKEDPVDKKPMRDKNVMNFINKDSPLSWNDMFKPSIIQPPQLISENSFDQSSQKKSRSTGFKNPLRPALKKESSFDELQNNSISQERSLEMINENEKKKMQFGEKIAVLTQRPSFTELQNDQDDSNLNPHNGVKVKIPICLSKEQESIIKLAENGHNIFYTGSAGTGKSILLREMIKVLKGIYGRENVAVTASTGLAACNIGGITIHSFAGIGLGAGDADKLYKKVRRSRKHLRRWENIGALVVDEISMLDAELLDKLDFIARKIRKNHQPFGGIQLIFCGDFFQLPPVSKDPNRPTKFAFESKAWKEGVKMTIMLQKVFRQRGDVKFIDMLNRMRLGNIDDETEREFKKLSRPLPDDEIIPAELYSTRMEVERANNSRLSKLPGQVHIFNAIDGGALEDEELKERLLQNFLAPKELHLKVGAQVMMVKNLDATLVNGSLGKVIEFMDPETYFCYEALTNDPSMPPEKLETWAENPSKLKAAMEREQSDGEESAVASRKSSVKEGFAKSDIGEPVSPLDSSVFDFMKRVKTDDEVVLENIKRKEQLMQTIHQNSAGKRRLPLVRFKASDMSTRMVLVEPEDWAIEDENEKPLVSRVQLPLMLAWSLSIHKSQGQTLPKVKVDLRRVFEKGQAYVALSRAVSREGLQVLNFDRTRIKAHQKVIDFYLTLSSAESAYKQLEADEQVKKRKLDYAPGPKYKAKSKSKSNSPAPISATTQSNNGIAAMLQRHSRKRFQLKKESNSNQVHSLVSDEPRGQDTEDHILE

GFP-Pif1 G291P = biological target: T2, GFP-Pif1 G291P (Saccharomyces cerevisiae, UniProt P07271 40-859, G291P)
T2 sequence: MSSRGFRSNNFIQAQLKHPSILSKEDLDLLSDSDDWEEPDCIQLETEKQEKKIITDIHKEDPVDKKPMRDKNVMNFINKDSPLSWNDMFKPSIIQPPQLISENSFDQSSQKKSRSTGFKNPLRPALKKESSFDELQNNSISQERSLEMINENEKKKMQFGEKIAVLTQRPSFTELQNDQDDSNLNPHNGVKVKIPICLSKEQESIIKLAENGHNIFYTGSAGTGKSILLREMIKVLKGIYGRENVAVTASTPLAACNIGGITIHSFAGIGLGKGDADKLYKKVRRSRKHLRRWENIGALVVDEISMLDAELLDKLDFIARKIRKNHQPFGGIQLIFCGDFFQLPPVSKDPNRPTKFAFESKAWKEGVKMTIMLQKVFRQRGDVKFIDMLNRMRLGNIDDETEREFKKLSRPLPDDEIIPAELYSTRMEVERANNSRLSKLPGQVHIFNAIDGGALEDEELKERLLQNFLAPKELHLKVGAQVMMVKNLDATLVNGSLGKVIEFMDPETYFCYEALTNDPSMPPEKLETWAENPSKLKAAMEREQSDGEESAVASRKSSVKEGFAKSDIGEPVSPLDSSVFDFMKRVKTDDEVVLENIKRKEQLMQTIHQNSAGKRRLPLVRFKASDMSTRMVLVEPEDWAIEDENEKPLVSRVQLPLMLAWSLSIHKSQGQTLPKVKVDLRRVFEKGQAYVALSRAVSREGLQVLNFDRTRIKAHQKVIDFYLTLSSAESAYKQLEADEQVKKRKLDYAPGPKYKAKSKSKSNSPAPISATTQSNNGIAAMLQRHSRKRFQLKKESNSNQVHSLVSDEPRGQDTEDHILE

GFP-Pif1 K264A = biological target: T3, GFP-Pif1 K264A (Saccharomyces cerevisiae, UniProt P07271 40-859, K264A)
T3 sequence: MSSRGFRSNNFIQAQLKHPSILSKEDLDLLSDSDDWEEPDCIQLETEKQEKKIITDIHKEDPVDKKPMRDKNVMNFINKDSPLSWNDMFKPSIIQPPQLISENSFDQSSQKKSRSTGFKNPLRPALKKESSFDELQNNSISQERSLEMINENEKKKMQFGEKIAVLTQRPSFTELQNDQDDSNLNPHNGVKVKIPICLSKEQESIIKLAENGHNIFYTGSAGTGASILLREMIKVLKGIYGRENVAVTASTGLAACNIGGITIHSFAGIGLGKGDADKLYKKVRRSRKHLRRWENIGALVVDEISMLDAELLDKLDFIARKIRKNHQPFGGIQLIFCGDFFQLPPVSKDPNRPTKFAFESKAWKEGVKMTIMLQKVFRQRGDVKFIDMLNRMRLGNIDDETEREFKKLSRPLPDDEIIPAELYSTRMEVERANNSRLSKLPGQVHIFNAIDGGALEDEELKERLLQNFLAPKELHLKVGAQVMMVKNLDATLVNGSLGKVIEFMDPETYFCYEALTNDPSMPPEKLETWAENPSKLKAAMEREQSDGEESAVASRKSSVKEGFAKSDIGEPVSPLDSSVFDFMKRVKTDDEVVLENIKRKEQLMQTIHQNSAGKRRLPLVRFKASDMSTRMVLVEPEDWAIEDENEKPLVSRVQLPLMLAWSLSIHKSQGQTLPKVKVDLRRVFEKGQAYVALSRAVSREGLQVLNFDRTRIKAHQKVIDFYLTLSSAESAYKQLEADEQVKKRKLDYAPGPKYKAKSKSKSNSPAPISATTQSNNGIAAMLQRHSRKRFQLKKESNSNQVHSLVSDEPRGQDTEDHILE

**Q.** GCTAGCAGTAGCCAGCATCGAACGTACGATCGGTAACGTA (ssDNA) [40-nt ssDNA] was tested. Which Kd (GFP-Pif1 K312A) did it give?
**A.** 40 nM

**Q.** What about the Kd (GFP-Pif1 G291P) of the same binder?
**A.** 61.4 ± 15.8 nM

**Q.** And the Kd (GFP-Pif1 K264A)?
**A.** 12.1 nM
